Data as given in patent publication US20140274782A1 (Stanford University, published 2014).

Legend:
Test in all cases: ProtoArray, GST-treated control array;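 further: human protein microarray (about 9500 recombinant proteins) incubated overnight with GST alone plus SAM cofactor as the negative control for G9a SET domain methylation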
[1] = target: HPCAL4-hippocalcin like 4 (HPCAL4) (human, UniProt Q9UM19 1-191)
[2] = target: T1, TGDS-TDP-glucose 4,6-dehydratase (TGDS) (human, UniProt O95455 1-350)
T1 sequence (looked up): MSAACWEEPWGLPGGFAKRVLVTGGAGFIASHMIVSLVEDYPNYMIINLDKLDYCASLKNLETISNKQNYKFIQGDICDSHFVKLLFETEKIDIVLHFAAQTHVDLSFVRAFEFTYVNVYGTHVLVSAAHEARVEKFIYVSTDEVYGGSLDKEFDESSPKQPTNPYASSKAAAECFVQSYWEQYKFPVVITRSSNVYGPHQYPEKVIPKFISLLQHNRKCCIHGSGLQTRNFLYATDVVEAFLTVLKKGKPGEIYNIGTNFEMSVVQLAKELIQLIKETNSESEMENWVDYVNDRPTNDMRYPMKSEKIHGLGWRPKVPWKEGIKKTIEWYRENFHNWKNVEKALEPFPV

[3] = target: T2, CRYZL1-crystallin, zeta (quinone reductase)-like 1 (CRYZL1) (human, UniProt O95825 1-349, limits assumed)
T2 sequence (looked up): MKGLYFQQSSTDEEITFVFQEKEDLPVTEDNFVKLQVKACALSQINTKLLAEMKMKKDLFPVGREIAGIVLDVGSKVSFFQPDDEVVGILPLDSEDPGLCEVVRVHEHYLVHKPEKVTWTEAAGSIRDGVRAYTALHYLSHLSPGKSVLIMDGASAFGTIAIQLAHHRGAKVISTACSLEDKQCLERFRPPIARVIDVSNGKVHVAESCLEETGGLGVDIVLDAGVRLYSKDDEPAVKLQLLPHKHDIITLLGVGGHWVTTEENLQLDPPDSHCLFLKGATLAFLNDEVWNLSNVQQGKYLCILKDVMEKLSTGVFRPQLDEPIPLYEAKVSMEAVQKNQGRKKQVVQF

[4] = target: T3, SH3YL1-SH3 domain containing, Ysc84-like 1 (S. cerevisiae), mRNA (cDNA clone MGC:12275 IMAGE:3996120), … (human, UniProt Q96HL8 1-342, limits assumed)
T3 sequence (looked up): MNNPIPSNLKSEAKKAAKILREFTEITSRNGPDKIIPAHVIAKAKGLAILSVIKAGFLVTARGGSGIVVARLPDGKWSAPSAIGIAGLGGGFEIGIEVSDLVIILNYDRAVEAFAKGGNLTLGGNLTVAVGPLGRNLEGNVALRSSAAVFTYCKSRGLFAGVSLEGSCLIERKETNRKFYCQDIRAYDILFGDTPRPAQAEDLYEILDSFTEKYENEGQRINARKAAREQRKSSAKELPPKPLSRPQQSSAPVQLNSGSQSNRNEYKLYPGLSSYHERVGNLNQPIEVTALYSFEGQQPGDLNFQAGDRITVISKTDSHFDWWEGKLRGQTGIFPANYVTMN

[5] = target: T4, GGPS1-Geranylgeranyl pyrophosphate synthetase (human, UniProt O95749 1-300)
T4 sequence (looked up): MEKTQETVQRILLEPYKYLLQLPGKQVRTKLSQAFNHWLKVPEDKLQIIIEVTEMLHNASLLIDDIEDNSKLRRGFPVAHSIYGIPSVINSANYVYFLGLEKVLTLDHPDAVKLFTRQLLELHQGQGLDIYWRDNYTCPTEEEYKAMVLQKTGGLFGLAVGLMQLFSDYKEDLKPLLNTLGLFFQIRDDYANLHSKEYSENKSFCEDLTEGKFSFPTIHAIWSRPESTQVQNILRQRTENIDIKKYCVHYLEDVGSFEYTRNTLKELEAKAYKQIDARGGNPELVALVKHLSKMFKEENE

[6] = target: T5, LTC4S-Leukotriene C4 synthase (human, UniProt Q16873 1-150)
T5 sequence (looked up): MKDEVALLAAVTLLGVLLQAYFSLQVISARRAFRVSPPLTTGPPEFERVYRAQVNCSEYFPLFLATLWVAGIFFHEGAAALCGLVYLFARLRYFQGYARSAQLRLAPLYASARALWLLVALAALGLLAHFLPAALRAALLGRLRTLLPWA

[7] = target: T6, RAB7B-RAB7B, member RAS oncogene family (RAB7B) (human, UniProt Q96AH8 1-199)
T6 sequence (looked up): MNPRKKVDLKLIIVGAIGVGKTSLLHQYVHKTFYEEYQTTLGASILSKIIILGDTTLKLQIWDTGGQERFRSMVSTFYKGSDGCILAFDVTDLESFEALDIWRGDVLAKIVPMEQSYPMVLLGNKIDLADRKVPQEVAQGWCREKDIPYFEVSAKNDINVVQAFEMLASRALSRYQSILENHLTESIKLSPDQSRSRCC

[8] = target: SCGB2A2-Mammaglobin-A (human, UniProt Q13296 19-93, limits assumed)
SCGB2A2-Mammaglobin-A, sequence (Q13296 19-93 limits assumed): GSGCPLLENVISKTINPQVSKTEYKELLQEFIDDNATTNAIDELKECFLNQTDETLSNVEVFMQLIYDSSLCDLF

[9] = target: N/A-cDNA clone IMAGE:4623222, partial cds (human)
[10] = target: FTH1-ferritin, heavy polypeptide 1 (FTH1) (human, UniProt P02794 1-183)
FTH1-ferritin, heavy polypeptide 1 (FTH1), sequence (P02794 whole entry): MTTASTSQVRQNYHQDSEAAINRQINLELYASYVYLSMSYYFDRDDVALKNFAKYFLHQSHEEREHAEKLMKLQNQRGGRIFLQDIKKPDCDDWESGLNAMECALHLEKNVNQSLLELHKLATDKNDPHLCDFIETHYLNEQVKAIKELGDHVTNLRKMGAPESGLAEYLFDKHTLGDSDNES

[11] = target: T7, MAGEH1-melanoma antigen family H, 1 (MAGEH1) (human, UniProt Q9H213 1-219)
T7 sequence (looked up): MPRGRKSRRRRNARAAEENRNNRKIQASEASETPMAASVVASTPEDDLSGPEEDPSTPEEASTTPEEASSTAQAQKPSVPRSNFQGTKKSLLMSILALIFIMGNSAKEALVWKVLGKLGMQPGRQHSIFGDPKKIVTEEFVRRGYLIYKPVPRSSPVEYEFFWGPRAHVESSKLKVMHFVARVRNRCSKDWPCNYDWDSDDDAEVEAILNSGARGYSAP

HPCAL4-hippocalcin like 4 (HPCAL4), sequence (Q9UM19 whole entry): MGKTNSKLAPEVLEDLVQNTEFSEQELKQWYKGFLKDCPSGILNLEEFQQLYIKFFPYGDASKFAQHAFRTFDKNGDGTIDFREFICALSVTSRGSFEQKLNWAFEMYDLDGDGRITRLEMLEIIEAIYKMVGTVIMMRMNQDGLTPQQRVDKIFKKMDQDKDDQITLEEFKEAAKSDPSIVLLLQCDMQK

GST Average SNR [1]: -0.871
GST Average SNR [2]: 1.15
GST Average SNR [3]: -1.42
GST Average SNR [4]: 0.26
GST Average SNR [5]: -0.483
GST Average SNR [6]: 1.21
GST Average SNR [7]: -0.309
GST Average SNR [8]: 0.983
GST Average SNR [9]: 1.04
GST Average SNR [10]: -0.802
GST Average SNR [11]: 1.11
B1: 3× Flag-3×MBT (designed binder)
chain: EEWSSSQPATGEKKECWSWESYLEEQKAITAPVSLFQDSQAVTHNKNGFKLGMKLEGIDPQHPSMYFILTVAEVCGYRLRLHFDGYSECHDFWVNANSPDIHPAGWFEKTGHKLQPPKGYKEEEFSWSQYLRSTRAQAAPKHLFVSQSHSPPPLGFQVGMKLEAVDRMNPSLVCVASVTDVVDSRFLVHFDNWDDTYDYWCDPSSPYIHPVGWCQKQGKPLTPPQDYPDPDNFCWEKYLEETGASAVPTWAFKVRPPHSFLVNMKLEAVDRRNPALIRVASVEDVEDHRIKIHFDGWSHGYDFWIDADHPDIHPAGWCSKTGHPLQPPLGPREPSSASPGG
notes: also called Flag-tagged 3×MBT; 3xFlag-3xMBT; not shown: made by PreScission cleavage of GST-3× Flag-3×MBT
